Target: the molecule itself
Test: negative-stain electron microscopy

B1: Drosophila Arc1 protein (natural protein, UniProt Q7K1U0 1-254, looked up)
chain: MAQLTQMTNEQLRELIEAVRAAAVGAAGSAAAAGGADASRGKGNFSACTHSFGGTRDHDVVEEFIGNIETYKDVEGISDENALKGISLLFYGMASTWWQGVRKEATTWKEAIALIREHFSPTKPAYQIYMEFFQNKQDDHDPIDTFVIQKRALLAQLPSGRHDEETELDLLFGLLNIKYRKHISRHSVHTFKDLLEQGRIIEHNNQEDEEQLATAKNTRGSKRTTRCTYCSFRGHTFDNCRKRQKDRQEEQHEE
  binding result: binds
